The target in experiment [1] is T1, human NLRP3^PYD (residues 3-110, C-terminal 6 x histidine) (human, UniProt Q96P20 3-110).
T1 construct: range 3-110; also called His6-NLRP3^PYD
As to the kind of experiment: fluorescence polarization binding assay, FITC-labelled peptide. On the technique in general: In fluorescence polarisation assays a small probe gives low polarisation when free and higher when bound to something large.

Experiment [2] has as its target T2, human N-terminally GST tagged ASC^PYD (human, UniProt Q9ULZ3 1-106).
T2 construct: range 1-106; Expressed in E. coli from pGEX-4T1; also called GST-ASC^PYD; not shown: N-terminal GST (glutathione S-transferase) tag of the pGEX-4T1 vector
Described as above.

Bridge positions count the residues as written; N and C are the ends. Square brackets hold non-standard residues; d marks the D form. Primed or numbered codes have the meaning given here. S5 = C=CCCC[C@](C)(N)C(=O)O; Nle = CCCC[C@H](N)C(=O)O; FITC′ = fluorescein; βAla = NCCC(=O)O

T1 sequence (Q96P20 other isoform, or with tags, fused parts or gaps limits assumed): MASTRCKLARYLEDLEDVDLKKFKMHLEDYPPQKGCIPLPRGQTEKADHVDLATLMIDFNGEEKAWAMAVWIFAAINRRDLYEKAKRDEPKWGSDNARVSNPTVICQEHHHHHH
T2 sequence (Q9ULZ3 1-106): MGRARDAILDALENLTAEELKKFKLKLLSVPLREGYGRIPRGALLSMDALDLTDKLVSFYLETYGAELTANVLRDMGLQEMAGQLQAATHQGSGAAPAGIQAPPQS

With {FITC′}-[βAla]EELKKFK[Nle]KLGTV-NH2 (also called peptide 55) [fPOP1-H2], the binding result in experiment [1] was “binds”.

B1: fSAH-POP1-6 (peptide)
peptide: XQXLKKXKXKLWTA
modifications: N-terminal fluorescein (FITC) on β-alanine; S5 = (S)-2-(4-pentenyl)alanine residues covalently linked (hydrocarbon staple); made on Rink amide resin
notes: also called peptide 57
With B1, in experiment [1], the “fold change of KD against fSAH-POP1-5 (lower)” value worked out at 2 fold.

B2: fSAH-POP1-5 (peptide)
peptide: AQXLKKXKXKLGTA
modifications: N-terminal fluorescein (FITC) on β-alanine; S5 = (S)-2-(4-pentenyl)alanine residues covalently linked (hydrocarbon staple); made on Rink amide resin
notes: also called peptide 56
With B2, the “fold change of KD against fSAH-POP1-4 (higher)” value in experiment [1] was found to be 1.5 fold.
As to {FITC′}-[βAla]Q[S5]LRK[S5]QWKLWTA-NH2 (staple 3-7, also called peptide 63) [fSAH-POP1-12], in experiment [1], the “fold increase of binding affinity against fSAH-POP1-10” value came out at 10 fold.

B3: fSAH-POP1-4 (peptide)
peptide: AEXLKKXKXKLGTV
modifications: N-terminal fluorescein (FITC) on β-alanine; S5 = (S)-2-(4-pentenyl)alanine residues covalently linked (hydrocarbon staple); made on Rink amide resin
notes: FITC-labelled stapled peptide; also called peptide 54
For B3, in experiment [1], the binding result was “binds”.
Regarding {FITC′}-[βAla]Q[S5]LRR[S5]QWKLWTS-NH2 (staple 3-7, also called peptide 67) [fSAH-POP1-16], the binding result in experiment [2] was “binds”.

The values are drawn from patent US20250115641A1 (H LEE MOFFITT CANCER CENTER AND RESEARCH INSTITUTE, published 2025).
